Measured values taken from US20250066503A1, “CELL INJURY INDUCING THERAPEUTIC DRUG FOR USE IN CANCER THERAPY” (CHUGAI SEIYAKU KABUSHIKI KAISHA, priority 2016, published 2025).

How the values were obtained:
[1] = biological target: T1, human GPC3 (human, UniProt P51654 25-563); assay: SPR
T1 construct: range 25-563; soluble analyte; also called soluble human GPC3; glypican 3

[2] = biological target: T2, soluble human CD3 epsilon chain (human, UniProt P07766 23-126); assay: SPR
T2 construct: also called CD3ε
T2 sequence (P07766 23-126 limits assumed): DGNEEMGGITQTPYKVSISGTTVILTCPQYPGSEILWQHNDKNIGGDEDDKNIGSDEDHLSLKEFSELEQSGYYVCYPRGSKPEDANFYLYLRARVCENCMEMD

T1 sequence (P51654 25-563 limits assumed): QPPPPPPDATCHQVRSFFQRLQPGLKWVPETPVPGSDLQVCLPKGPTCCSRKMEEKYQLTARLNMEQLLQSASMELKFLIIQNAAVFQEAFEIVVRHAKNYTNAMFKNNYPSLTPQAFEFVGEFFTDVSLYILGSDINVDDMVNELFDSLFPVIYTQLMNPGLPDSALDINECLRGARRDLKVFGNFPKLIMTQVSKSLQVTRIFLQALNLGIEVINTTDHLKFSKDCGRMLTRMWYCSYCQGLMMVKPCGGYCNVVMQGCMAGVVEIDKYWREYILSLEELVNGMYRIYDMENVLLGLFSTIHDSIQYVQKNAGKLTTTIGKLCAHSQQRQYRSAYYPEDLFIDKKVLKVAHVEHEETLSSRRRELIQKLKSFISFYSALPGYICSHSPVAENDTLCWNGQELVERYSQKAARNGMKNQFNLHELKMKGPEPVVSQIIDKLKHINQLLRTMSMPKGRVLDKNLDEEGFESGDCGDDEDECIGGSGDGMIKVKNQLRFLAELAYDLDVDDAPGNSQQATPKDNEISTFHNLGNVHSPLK

Binder	Kd [1] [nM]	Kd [2] [nM]
H0610-G1dh/none-Hi-Kn010G3/L0212-k0 (antibody, V domains shown, one-arm) VH: QVQLVQSGAEVKKPGASVKVSCKASGYTFTDYEMHWIRQPPGQGLEWIGAIDGKTPDTAYSQKFKGRVTLTADKSTSTAYMELSSLTSEDTAVYYCTRFYSYTYWGQGTLVTVSS VL: DIVMTQSPLSLPVTPGEPASISCRPSQSPVHSNRNTYLHWYQQKPGQAPRLLIYKVSNRFSGVPDRFSGSGSGTDFTLKISRVEAEDVGVYYCYQGTQVPYTFGQGTKLEIKR	0.994	–
H0610-G1dh/none-Hi-Kn010G3/L0211-k0 (antibody, V domains shown, one-arm) VH: QVQLVQSGAEVKKPGASVKVSCKASGYTFTDYEMHWIRQPPGQGLEWIGAIDGKTPDTAYSQKFKGRVTLTADKSTSTAYMELSSLTSEDTAVYYCTRFYSYTYWGQGTLVTVSS VL: DIVMTQSPLSLPVTPGEPASISCRSSQPPVHSNRNTYLHWYQQKPGQAPRLLIYKVSNRFSGVPDRFSGSGSGTDFTLKISRVEAEDVGVYYCYQGTQVPYTFGQGTKLEIKR	0.647	–
TR01H015-E2702GsKsc/GCH019-E2704sEpsc/L0000-k0 (bispecific antibody, human IgG4 S228P, kappa, N297A, common L chain format) heavy 1: QVQLVESGGGLVQPGRSLRLSCAASGFTFSNAWMHWVRQAPGKGLEWVAQIKGKSNNYATYYAESVKGRFTISRADSKNSIYLQMNSLKTEDTAVYYCRYVHYSASYGVDIWGQGTTVTVSSASTKGPSVFPLAPCSRSTSESTAALGCLVKDYFPEPVTVSWNSGALTSGVHTFPAVLQSSGLYSLSSVVTVPSSSLGTKTYTCNVDHKPSNTKVDKRVESKYGPPCPPCPAPEFRGGPKVFLFPPKPKDTLMISRTPEVTCVVVDVSQEDPEVQFNWYVDGVEVHNAKTKPREEQFASTYRVVSVLTVLHQDWLNGKEYKCKVSNKGLPSSIEKTISKAKGQPREPQVYTLPPSQKEMTKNQVSLTCLVKGFYPSDIAVEWESNGQPENNYKTTPPVLDSDGSFFLYSKLTVDKSRWQEGNVFSCSVMHEALHNRYTQKSLSLSP heavy 2: QVQLVQSGAEVKKPGASVTVSCKASGYTFTDYEMHWIRQPPGEGLEWIGAIDGKTPDTAYEQKFKGRVTLTADKSTSTAYMELSSLTSEDTAVYYCTRFYSYTYWGQGTLVTVSSASTKGPSVFPLAPCSRSTSESTAALGCLVKDYFPEPVTVSWNSGALTSGVHTFPAVLQSSGLYSLSSVVTVPSSSLGTQTYTCNVDHKPSNTKVDKRVESKYGPPCPPCPAPEFRGGPKVFLFPPKPKDTLMISRTPEVTCVVVDVSQEDPEVQFNWYVDGVEVHNAKTKPREEQFASTYRVVSVLTVLHQDWLNGKEYKCKVSNKGLPSSIEKTISKAKGQPREPQVYTLPPSQEEMTKNQVSLTCLVKGFYPSDIAVEWESNGQPENNYKTTPPVLDSDGSFFLYSKLTVDKSRWQEGNVFSCSVMHEALHNHYTQESLSLSP light: DIVMTQSPLSLPVTPGEPASISCRSSQSLVHSNRNTYLHWYQQKPGQAPRLLIYKVSNRFSGVPDRFSGSGSGTDFTLKISRVEAEDVGVYYCGQGTQVPYTFGQGTKLEIKRTVAAPSVFIFPPSDEQLKSGTASVVCLLNNFYPREAKVQWKVDNALQSGNSQESVTEQDSKDSTYSLSSTLTLSKADYEKHKVYACEVTHQGLSSPVTKSFNRGEC	1.64	29.6
CE115HA251-E22Hh/L0000-k0/GL4-E22Hk/H0610-E22L (bispecific antibody, human IgG1, kappa, L234A L235A, N297A, ERY22 format) heavy: QVQLVESGGGVVQPGRSLRLSCAASGFTFSNAWMHWVRQAPGKGLEWVAQIKAKSNNYATYYAESVKGRFTISRDDSKNSLYLQMNSLKTEDTAVYYCRYVHYYYYYGVDAWGQGTTVTVSSASTKGPSVFPLAPSSKSTSGGTAALGCLVKDYFPEPVTVSWNSGALTSGVHTFPAVLQSSGLYSLSSVVTVPSSSLGTQTYICNVNHKPSNTKVDKKVEPKSCDKTHTCPPCPAPEAAGGPSVFLFPPKPKDTLMISRTPEVTCVVVDVSHEDPEVKFNWYVDGVEVHNAKTKPREEQYASTYRVVSVLTVLHQDWLNGKEYKCKVSNKALPAPIEKTISKAKGQPREPQVYTLPPSRCELTKNQVSLSCAVKGFYPSDIAVEWESNGQPENNYKTTPPVLDSDGSFFLVSKLTVDKSRWQQGNVFSCSVMHEALHNHYTQKSLSLSPDYKDDDDK light: DIVMTQSPLSLPVTPGEPASISCRSSQSLVHSNRNTYLHWYQQKPGQAPRLLIYKVSNRFSGVPDRFSGSGSGTDFTLKISRVEAEDVGVYYCGQGTQVPYTFGQGTKLEIKRTVAAPSVFIFPPSDEQLKSGTASVVCLLNNFYPREAKVQWKVDNALQSGNSQESVTEQDSKDSTYSLSSTLTLSKADYEKHKVYACEVTHQGLSSPVTKSFNRGEC chain 1: DIVMTQSPLSLPVTPGEPASISCRSSQSLVHSNRNTYLHWYQQKPGQAPRLLIYKVSNRFSGVPDRFSGSGSGTDFTLKISRVEAEDVGVYYCSQNTHVPPTFGQGTKLEIKSSASTKGPSVFPLAPSSKSTSGGTAALGCLVKDYFPEPVTVSWNSGALTSGVHTFPAVLQSSGLYSLSSVVTVPSSSLGTQTYICNVNHKPSNTKVDKKVEPKSCDKTHTCPPCPAPEAAGGPSVFLFPPKPKDTLMISRTPEVTCVVVDVSHEDPEVKFNWYVDGVEVHNAKTKPREEQYASTYRVVSVLTVLHQDWLNGKEYKCKVSNKALPAPIEKTISKAKGQPREPQVCTLPPSRDELTKNQVSLWCLVKGFYPSDIAVEWESNGQPENNYKTTPPVLDSDGSFFLYSKLTVDKSRWQQGNVFSCSVMHEALHNHYTQKSLSLSPHHHHHHHH chain 2: QVQLVQSGAEVKKPGASVKVSCKASGYTFTDYEMHWIRQPPGQGLEWIGAIDGKTPDTAYSQKFKGRVTLTADKSTSTAYMELSSLTSEDTAVYYCTRFYSYTYWGQGTLVTVSSASVAAPSVFIFPPSDEQLKSGTASVVCLLNNFYPREAKVQWKVDNALQSGNSQESVTEQDSKDSTYSLSSTLTLSKADYEKHKVYACEVTHQGLSSPVTKSFNRGEC	0.236	13.7
CE115HA236-E22Hh/GLS3108-k0/GL4-E22Hk/H0610-E22L (bispecific antibody, human IgG1, kappa, L234A L235A, N297A, ERY22 format) heavy: QVQLVESGGGVVQPGRSLRLSCAASGFTFSNAWMHWVRQAPGKGLEWVAQIKAKSNNYATYYAESVKGRFTISRDDSKNSLYLQMNSLKTEDTAVYYCRYVHYYAYYGVQAWGQGTTVTVSSASTKGPSVFPLAPSSKSTSGGTAALGCLVKDYFPEPVTVSWNSGALTSGVHTFPAVLQSSGLYSLSSVVTVPSSSLGTQTYICNVNHKPSNTKVDKKVEPKSCDKTHTCPPCPAPEAAGGPSVFLFPPKPKDTLMISRTPEVTCVVVDVSHEDPEVKFNWYVDGVEVHNAKTKPREEQYASTYRVVSVLTVLHQDWLNGKEYKCKVSNKALPAPIEKTISKAKGQPREPQVYTLPPSRCELTKNQVSLSCAVKGFYPSDIAVEWESNGQPENNYKTTPPVLDSDGSFFLVSKLTVDKSRWQQGNVFSCSVMHEALHNHYTQKSLSLSPDYKDDDDK light: DIVMTQSPLSLPVTPGEPASISCRSSQSLVHSNRNTYLSWYQQKPGQAPRLLIYKVSNRFSGVPDRFSGSGSGTDFTLKISRVEAEDVGVYYCGQGTQVPYTFGQGTKLEIKRTVAAPSVFIFPPSDEQLKSGTASVVCLLNNFYPREAKVQWKVDNALQSGNSQESVTEQDSKDSTYSLSSTLTLSKADYEKHKVYACEVTHQGLSSPVTKSFNRGEC chain 1: DIVMTQSPLSLPVTPGEPASISCRSSQSLVHSNRNTYLHWYQQKPGQAPRLLIYKVSNRFSGVPDRFSGSGSGTDFTLKISRVEAEDVGVYYCSQNTHVPPTFGQGTKLEIKSSASTKGPSVFPLAPSSKSTSGGTAALGCLVKDYFPEPVTVSWNSGALTSGVHTFPAVLQSSGLYSLSSVVTVPSSSLGTQTYICNVNHKPSNTKVDKKVEPKSCDKTHTCPPCPAPEAAGGPSVFLFPPKPKDTLMISRTPEVTCVVVDVSHEDPEVKFNWYVDGVEVHNAKTKPREEQYASTYRVVSVLTVLHQDWLNGKEYKCKVSNKALPAPIEKTISKAKGQPREPQVCTLPPSRDELTKNQVSLWCLVKGFYPSDIAVEWESNGQPENNYKTTPPVLDSDGSFFLYSKLTVDKSRWQQGNVFSCSVMHEALHNHYTQKSLSLSPHHHHHHHH chain 2: QVQLVQSGAEVKKPGASVKVSCKASGYTFTDYEMHWIRQPPGQGLEWIGAIDGKTPDTAYSQKFKGRVTLTADKSTSTAYMELSSLTSEDTAVYYCTRFYSYTYWGQGTLVTVSSASVAAPSVFIFPPSDEQLKSGTASVVCLLNNFYPREAKVQWKVDNALQSGNSQESVTEQDSKDSTYSLSSTLTLSKADYEKHKVYACEVTHQGLSSPVTKSFNRGEC	0.267	6.08

Continued by falling Kd [1], values first:

Kd [1] [nM]	Kd [2] [nM]	Binder
2.16	–	H0610-G1dh/none-Hi-Kn010G3/L0000vk1-k0 (antibody, V domains shown, one-arm) VH: QVQLVQSGAEVKKPGASVKVSCKASGYTFTDYEMHWIRQPPGQGLEWIGAIDGKTPDTAYSQKFKGRVTLTADKSTSTAYMELSSLTSEDTAVYYCTRFYSYTYWGQGTLVTVSS VL: DIQMTQSPSSLSASVGDRVTITCRSSQSLVHSNRNTYLHWYQQKPGKAPKLLIYKVSNRFSGVPSRFSGSGSGTDFTFTISSLQPEDIATYYCGQGTQVPYTFGQGTKVEIK
1.12	–	H0610-G1dh/none-Hi-Kn010G3/L0209-k0 (antibody, V domains shown, one-arm) VH: QVQLVQSGAEVKKPGASVKVSCKASGYTFTDYEMHWIRQPPGQGLEWIGAIDGKTPDTAYSQKFKGRVTLTADKSTSTAYMELSSLTSEDTAVYYCTRFYSYTYWGQGTLVTVSS VL: DIVMTQSPLSLPVTPGEPASISCRSSQSPVHSNRNTYIHWYQQKPGQAPRLLIYKVSNRFSGVPDRFSGSGSGTDFTLKISRVEAEDVGVYYCYQGTQVPYTFGQGTKLEIKR
0.865	–	H0610-G1dh/none-Hi-Kn010G3/L0206-k0 (antibody, V domains shown, one-arm) VH: QVQLVQSGAEVKKPGASVKVSCKASGYTFTDYEMHWIRQPPGQGLEWIGAIDGKTPDTAYSQKFKGRVTLTADKSTSTAYMELSSLTSEDTAVYYCTRFYSYTYWGQGTLVTVSS VL: DIVMTQSPLSLPVTPGEPASISCRSSQSPVHSNRNTYLHWYQQKPGQAPRLLIYKVSNRFSGVPDRFSGSGSGTDFTLKISRVEAEDVGVYYCYQGTQVPYTFGQGTKLEIKR
0.53	–	H0610-G1dh/none-Hi-Kn010G3/L0208-k0 (antibody, V domains shown, one-arm) VH: QVQLVQSGAEVKKPGASVKVSCKASGYTFTDYEMHWIRQPPGQGLEWIGAIDGKTPDTAYSQKFKGRVTLTADKSTSTAYMELSSLTSEDTAVYYCTRFYSYTYWGQGTLVTVSS VL: DIVMTQSPLSLPVTPGEPASISCRSSQSPVHSNRNTYLHWYQQKPGQAPRLLIYKVSNRFWGVPDRFSGSGSGTDFTLKISRVEAEDVGVYYCYQGTQVPYTFGQGTKLEIKR
0.00014	–	H0610-G1dh/none-Hi-Kn010G3/L0222-k0 (antibody, V domains shown, one-arm) VH: QVQLVQSGAEVKKPGASVKVSCKASGYTFTDYEMHWIRQPPGQGLEWIGAIDGKTPDTAYSQKFKGRVTLTADKSTSTAYMELSSLTSEDTAVYYCTRFYSYTYWGQGTLVTVSS VL: DIVMTQSPLSLPVTPGEPASISCRSSQSPVHSNRNTYIQWYQQKPGQAPRLLIYKVSNRFSGVPDRFSGSGSGTDFTLKISRVEAEDVGVYYCYQGTQVPYTFGQGTKLEIKR
